Measurements from PMC10786891, “Massively parallel profiling of RNA-targeting CRISPR-Cas13d”.

biological target: T1, EsCas13d, nuclease-dead (Eubacterium siraeum, UniProt B0MS50, R295A;H300A;R849A;H854A); assay: crRNA (strand 1, pre-loaded); Mg2+; 40 mM Tris-HCl pH 7.5, 150 mM NaCl, 6 mM MgCl2, 1 mM DTT, 0.1% Tween-20, 0.2 mg/ml BSA; 25 C; 10 min per concentration, then washed; details: tags: His6-TwinStrep-SUMO cleaved; N-terminal SNAP kept (SNAP-Surface 488); label: 3' end held by stalled T7 RNA polymerase
T1 sequence: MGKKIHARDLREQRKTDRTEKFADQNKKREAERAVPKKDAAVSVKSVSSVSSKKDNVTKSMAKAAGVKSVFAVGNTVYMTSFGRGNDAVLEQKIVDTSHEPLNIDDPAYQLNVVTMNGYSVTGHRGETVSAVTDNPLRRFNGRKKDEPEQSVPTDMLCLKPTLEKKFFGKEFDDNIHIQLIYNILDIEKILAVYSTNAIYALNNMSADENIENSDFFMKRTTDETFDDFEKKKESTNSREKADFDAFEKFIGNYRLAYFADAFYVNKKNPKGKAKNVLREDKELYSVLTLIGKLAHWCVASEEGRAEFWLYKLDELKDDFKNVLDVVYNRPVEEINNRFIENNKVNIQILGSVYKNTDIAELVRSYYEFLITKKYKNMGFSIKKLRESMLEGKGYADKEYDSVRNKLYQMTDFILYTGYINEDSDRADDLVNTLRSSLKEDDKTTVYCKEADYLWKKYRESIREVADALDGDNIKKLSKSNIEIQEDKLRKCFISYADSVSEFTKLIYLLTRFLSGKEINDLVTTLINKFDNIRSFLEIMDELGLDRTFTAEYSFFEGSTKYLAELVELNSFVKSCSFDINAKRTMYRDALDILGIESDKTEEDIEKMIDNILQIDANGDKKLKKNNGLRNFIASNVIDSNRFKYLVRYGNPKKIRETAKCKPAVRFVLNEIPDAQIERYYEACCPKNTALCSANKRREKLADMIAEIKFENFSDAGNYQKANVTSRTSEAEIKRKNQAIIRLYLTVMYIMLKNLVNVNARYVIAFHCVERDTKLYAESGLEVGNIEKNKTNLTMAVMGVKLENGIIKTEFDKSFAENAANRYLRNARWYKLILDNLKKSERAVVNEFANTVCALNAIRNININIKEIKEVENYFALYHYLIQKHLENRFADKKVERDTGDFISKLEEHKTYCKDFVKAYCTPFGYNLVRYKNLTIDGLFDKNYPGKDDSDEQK

Binder	Kd [nM]
target 1 insU 3' of 17,insC 3' of 16 (mixed) RNA 1: CACCCGUGCAAAAAUGCAGGGGUCUAAAACUGAGCGGAUAACCUCUCUAUGG RNA 2: GGGAAUGGAUCCACAUCUACGAAUUCGUACCAUAGUACGAGGUUAUCCGCUCACCGAGAUCGGAAGAGCACACGU	91 ± 20
target 1 insU 3' of 18,insC 3' of 15 (mixed) RNA 1: CACCCGUGCAAAAAUGCAGGGGUCUAAAACUGAGCGGAUAACCUCUCUAUGG RNA 2: GGGAAUGGAUCCACAUCUACGAAUUCGUACCAUAUGAGCAGGUUAUCCGCUCACCGAGAUCGGAAGAGCACACGU	49 ± 5
target 1 G5C,G17A (mixed) RNA 1: CACCCGUGCAAAAAUGCAGGGGUCUAAAACUGAGCGGAUAACCUCUCUAUGG RNA 2: GGGAAUGGAUCCACAUCUACGAAUUCGUACCAUAAAGAGGUUAUCCCCUCACCGAGAUCGGAAGAGCACACGU	79 ± 28
target 1 C2A,G13U (mixed) RNA 1: CACCCGUGCAAAAAUGCAGGGGUCUAAAACUGAGCGGAUAACCUCUCUAUGG RNA 2: GGGAAUGGAUCCACAUCUACGAAUUCGUACCAUAGAGAUGUUAUCCGCUAACCGAGAUCGGAAGAGCACACGU	49 ± 8
target 1 G5C,C6G (mixed) RNA 1: CACCCGUGCAAAAAUGCAGGGGUCUAAAACUGAGCGGAUAACCUCUCUAUGG RNA 2: GGGAAUGGAUCCACAUCUACGAAUUCGUACCAUAGAGAGGUUAUCGCCUCACCGAGAUCGGAAGAGCACACGU	10.9 ± 0.6
target 1 C2U,A20C (mixed) RNA 1: CACCCGUGCAAAAAUGCAGGGGUCUAAAACUGAGCGGAUAACCUCUCUAUGG RNA 2: GGGAAUGGAUCCACAUCUACGAAUUCGUACCCUAGAGAGGUUAUCCGCUUACCGAGAUCGGAAGAGCACACGU	31.4 ± 1.6
target 1 U3G,A14G (mixed) RNA 1: CACCCGUGCAAAAAUGCAGGGGUCUAAAACUGAGCGGAUAACCUCUCUAUGG RNA 2: GGGAAUGGAUCCACAUCUACGAAUUCGUACCAUAGAGGGGUUAUCCGCGCACCGAGAUCGGAAGAGCACACGU	12.9 ± 1.2
target 1 C7U,G12U (mixed) RNA 1: CACCCGUGCAAAAAUGCAGGGGUCUAAAACUGAGCGGAUAACCUCUCUAUGG RNA 2: GGGAAUGGAUCCACAUCUACGAAUUCGUACCAUAGAGAGUUUAUUCGCUCACCGAGAUCGGAAGAGCACACGU	13.4 ± 1.1
target 1 insU 3' of 9,insU 3' of 2 (mixed) RNA 1: CACCCGUGCAAAAAUGCAGGGGUCUAAAACUGAGCGGAUAACCUCUCUAUGG RNA 2: GGGAAUGGAUCCACAUCUACGAAUUCGUACCAUAGAGAGGUUAUUCCGCUCUACCGAGAUCGGAAGAGCACACGU	20.2 ± 1
target 1 insA 3' of 7,insG 3' of 1 (mixed) RNA 1: CACCCGUGCAAAAAUGCAGGGGUCUAAAACUGAGCGGAUAACCUCUCUAUGG RNA 2: GGGAAUGGAUCCACAUCUACGAAUUCGUACCAUAGAGAGGUUAUCACGCUCAGCCGAGAUCGGAAGAGCACACGU	6.8 ± 0.4
target 1 A1C,A20C (mixed) RNA 1: CACCCGUGCAAAAAUGCAGGGGUCUAAAACUGAGCGGAUAACCUCUCUAUGG RNA 2: GGGAAUGGAUCCACAUCUACGAAUUCGUACCCUAGAGAGGUUAUCCGCUCCCCGAGAUCGGAAGAGCACACGU	32 ± 4
target 1 C7G,A16G (mixed) RNA 1: CACCCGUGCAAAAAUGCAGGGGUCUAAAACUGAGCGGAUAACCUCUCUAUGG RNA 2: GGGAAUGGAUCCACAUCUACGAAUUCGUACCAUAGGGAGGUUAUGCGCUCACCGAGAUCGGAAGAGCACACGU	34 ± 4
target 1 A1G,A18C (mixed) RNA 1: CACCCGUGCAAAAAUGCAGGGGUCUAAAACUGAGCGGAUAACCUCUCUAUGG RNA 2: GGGAAUGGAUCCACAUCUACGAAUUCGUACCAUCGAGAGGUUAUCCGCUCGCCGAGAUCGGAAGAGCACACGU	62 ± 8
target 1 insU 3' of 13,insC 3' of 8 (mixed) RNA 1: CACCCGUGCAAAAAUGCAGGGGUCUAAAACUGAGCGGAUAACCUCUCUAUGG RNA 2: GGGAAUGGAUCCACAUCUACGAAUUCGUACCAUAGAGAGUGUUAUCCCGCUCACCGAGAUCGGAAGAGCACACGU	14.7 ± 1.6
target 1 A16G,C21U (mixed) RNA 1: CACCCGUGCAAAAAUGCAGGGGUCUAAAACUGAGCGGAUAACCUCUCUAUGG RNA 2: GGGAAUGGAUCCACAUCUACGAAUUCGUACUAUAGGGAGGUUAUCCGCUCACCGAGAUCGGAAGAGCACACGU	7.65 ± 0.33
target 1 A18C (mixed) RNA 1: CACCCGUGCAAAAAUGCAGGGGUCUAAAACUGAGCGGAUAACCUCUCUAUGG RNA 2: GGGAAUGGAUCCACAUCUACGAAUUCGUACCAUCGAGAGGUUAUCCGCUCACCGAGAUCGGAAGAGCACACGU	51.3 ± 3.5
target 1 A1C,A18C (mixed) RNA 1: CACCCGUGCAAAAAUGCAGGGGUCUAAAACUGAGCGGAUAACCUCUCUAUGG RNA 2: GGGAAUGGAUCCACAUCUACGAAUUCGUACCAUCGAGAGGUUAUCCGCUCCCCGAGAUCGGAAGAGCACACGU	75 ± 29
target 1 C4U,G5U (mixed) RNA 1: CACCCGUGCAAAAAUGCAGGGGUCUAAAACUGAGCGGAUAACCUCUCUAUGG RNA 2: GGGAAUGGAUCCACAUCUACGAAUUCGUACCAUAGAGAGGUUAUCCUUUCACCGAGAUCGGAAGAGCACACGU	49 ± 4
target 1 insU 3' of 18,insU 3' of 17 (mixed) RNA 1: CACCCGUGCAAAAAUGCAGGGGUCUAAAACUGAGCGGAUAACCUCUCUAUGG RNA 2: GGGAAUGGAUCCACAUCUACGAAUUCGUACCAUAUGUAGAGGUUAUCCGCUCACCGAGAUCGGAAGAGCACACGU	47 ± 8
target 1 insC 3' of 20,insU 3' of 6 (mixed) RNA 1: CACCCGUGCAAAAAUGCAGGGGUCUAAAACUGAGCGGAUAACCUCUCUAUGG RNA 2: GGGAAUGGAUCCACAUCUACGAAUUCGUACCACUAGAGAGGUUAUCCUGCUCACCGAGAUCGGAAGAGCACACGU	11.3 ± 0.9
target 1 A1U,A18C (mixed) RNA 1: CACCCGUGCAAAAAUGCAGGGGUCUAAAACUGAGCGGAUAACCUCUCUAUGG RNA 2: GGGAAUGGAUCCACAUCUACGAAUUCGUACCAUCGAGAGGUUAUCCGCUCUCCGAGAUCGGAAGAGCACACGU	66 ± 12
target 1 insU 3' of 13,insG 3' of 4 (mixed) RNA 1: CACCCGUGCAAAAAUGCAGGGGUCUAAAACUGAGCGGAUAACCUCUCUAUGG RNA 2: GGGAAUGGAUCCACAUCUACGAAUUCGUACCAUAGAGAGUGUUAUCCGCGUCACCGAGAUCGGAAGAGCACACGU	14.2 ± 2
target 1 C6A,A9G (mixed) RNA 1: CACCCGUGCAAAAAUGCAGGGGUCUAAAACUGAGCGGAUAACCUCUCUAUGG RNA 2: GGGAAUGGAUCCACAUCUACGAAUUCGUACCAUAGAGAGGUUGUCAGCUCACCGAGAUCGGAAGAGCACACGU	11.5 ± 0.6
target 1 insU 3' of 17,insU 3' of 1 (mixed) RNA 1: CACCCGUGCAAAAAUGCAGGGGUCUAAAACUGAGCGGAUAACCUCUCUAUGG RNA 2: GGGAAUGGAUCCACAUCUACGAAUUCGUACCAUAGUAGAGGUUAUCCGCUCAUCCGAGAUCGGAAGAGCACACGU	22.4 ± 2.3
target 1 A14C,G15A (mixed) RNA 1: CACCCGUGCAAAAAUGCAGGGGUCUAAAACUGAGCGGAUAACCUCUCUAUGG RNA 2: GGGAAUGGAUCCACAUCUACGAAUUCGUACCAUAGAACGGUUAUCCGCUCACCGAGAUCGGAAGAGCACACGU	32 ± 2.8
target 1 insC 3' of 10,insG 3' of 2 (mixed) RNA 1: CACCCGUGCAAAAAUGCAGGGGUCUAAAACUGAGCGGAUAACCUCUCUAUGG RNA 2: GGGAAUGGAUCCACAUCUACGAAUUCGUACCAUAGAGAGGUUCAUCCGCUCGACCGAGAUCGGAAGAGCACACGU	24.8 ± 2.1
target 1 C6G,A18C (mixed) RNA 1: CACCCGUGCAAAAAUGCAGGGGUCUAAAACUGAGCGGAUAACCUCUCUAUGG RNA 2: GGGAAUGGAUCCACAUCUACGAAUUCGUACCAUCGAGAGGUUAUCGGCUCACCGAGAUCGGAAGAGCACACGU	62 ± 8
target 1 C2A,G17A (mixed) RNA 1: CACCCGUGCAAAAAUGCAGGGGUCUAAAACUGAGCGGAUAACCUCUCUAUGG RNA 2: GGGAAUGGAUCCACAUCUACGAAUUCGUACCAUAAAGAGGUUAUCCGCUAACCGAGAUCGGAAGAGCACACGU	47 ± 6
